In the supplement of paper PMC9112550, “Optimization of the antimicrobial peptide Bac7 by deep mutational scanning” (BMC Biology, 2022):

Test system: Escherichia coli TOP10
Experiment: shrunken log2 fold change of peptide-encoding DNA abundance (4.5 h post-induction vs induction); higher = less antimicrobial activity (less host growth inhibition)
Conditions: time post-induction: 4.5 h; library: site-saturation at positions 5, 18, 19, 20
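Note: peptides expressed intracellularly from a pBAD plasmid library in pooled LB shake-flask culture, induced with 0.3% L-arabinose, DNA abundance read by NGS, three biological replicates, DESeq2 with apeglm shrinkage.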

Row | Sequence | shrunken log2 fold change
1 | RRIRCRPPRLPRPRPRPWIQPRP | -0.000687
2 | RRIRLRPPRLPRPRPRPQVFPRP | 0.502
3 | RRIRIRPPRLPRPRPRPDSFPRP | 0.0771
4 | RRIRRRPPRLPRPRPRPCHDPRP | -0.105
5 | RRIRERPPRLPRPRPRPTEVPRP | -0.121
6 | RRIRMRPPRLPRPRPRPQWWPRP | 0.245
7 | RRIRDRPPRLPRPRPRPICFPRP | 0.227
8 | RRIRHRPPRLPRPRPRPVSIPRP | -0.00904
9 | RRIRLRPPRLPRPRPRPILKPRP | 0.0777
10 | RRIRKRPPRLPRPRPRPVVWPRP | 0.602
11 | RRIRTRPPRLPRPRPRPINFPRP | -0.0833
12 | RRIRYRPPRLPRPRPRPPFYPRP | -0.789
13 | RRIRYRPPRLPRPRPRPAHQPRP | 0.126
14 | RRIRIRPPRLPRPRPRPPVYPRP | -0.288
15 | RRIRVRPPRLPRPRPRPYHHPRP | -0.0938
16 | RRIRHRPPRLPRPRPRPMAKPRP | -0.124
17 | RRIRVRPPRLPRPRPRPSRCPRP | -0.101
18 | RRIRPRPPRLPRPRPRPAMCPRP | -0.0389
19 | RRIRDRPPRLPRPRPRPVNSPRP | 0.0226
20 | RRIRTRPPRLPRPRPRPTPYPRP | -0.298
21 | RRIRMRPPRLPRPRPRPIYPPRP | -0.125
22 | RRIRVRPPRLPRPRPRPWLHPRP | 0.215
23 | RRIRLRPPRLPRPRPRPSENPRP | 0.124
24 | RRIRSRPPRLPRPRPRPNGLPRP | -0.0247
25 | RRIRWRPPRLPRPRPRPGYNPRP | -0.0807

Row | Sequence | shrunken log2 fold change
26 | RRIRTRPPRLPRPRPRPIPCPRP | -0.0839
27 | RRIRQRPPRLPRPRPRPNDGPRP | -0.000777
28 | RRIRERPPRLPRPRPRPPTVPRP | 0.166
29 | RRIRKRPPRLPRPRPRPKCFPRP | 0.00084
30 | RRIRARPPRLPRPRPRPCQYPRP | -0.411
31 | RRIRARPPRLPRPRPRPEFWPRP | 1.12
32 | RRIRMRPPRLPRPRPRPRVVPRP | 0.246
33 | RRIRDRPPRLPRPRPRPMWDPRP | 0.00712
34 | RRIRNRPPRLPRPRPRPGLDPRP | 0.00266
35 | RRIRLRPPRLPRPRPRPMGEPRP | 0.136
36 | RRIRWRPPRLPRPRPRPTYKPRP | -0.467
37 | RRIRQRPPRLPRPRPRPRCAPRP | 0.385
38 | RRIRLRPPRLPRPRPRPAVQPRP | -0.249
39 | RRIRYRPPRLPRPRPRPCQAPRP | -0.269
40 | RRIRPRPPRLPRPRPRPLMTPRP | -0.0836
41 | RRIRCRPPRLPRPRPRPRDIPRP | -0.132
42 | RRIRSRPPRLPRPRPRPNKNPRP | -0.384
43 | RRIRQRPPRLPRPRPRPSKWPRP | -0.351
44 | RRIRVRPPRLPRPRPRPCRPPRP | 0.00447
45 | RRIRMRPPRLPRPRPRPRVHPRP | 0.446
46 | RRIRGRPPRLPRPRPRPNCLPRP | 0.191
47 | RRIRPRPPRLPRPRPRPYNDPRP | -0.723
48 | RRIRKRPPRLPRPRPRPVTNPRP | -0.0569
49 | RRIRKRPPRLPRPRPRPCKQPRP | 0.0173
50 | RRIRHRPPRLPRPRPRPKQEPRP | 0.0169

Row | Sequence | shrunken log2 fold change
51 | RRIRARPPRLPRPRPRPKVAPRP | 0.698
52 | RRIRERPPRLPRPRPRPWNKPRP | -0.286
53 | RRIRIRPPRLPRPRPRPSAGPRP | -0.334
54 | RRIRCRPPRLPRPRPRPALHPRP | 0.179
55 | RRIRLRPPRLPRPRPRPSVAPRP | -0.0589
56 | RRIRKRPPRLPRPRPRPSSMPRP | -0.0241
57 | RRIRMRPPRLPRPRPRPFNRPRP | -0.00136
58 | RRIRRRPPRLPRPRPRPREMPRP | 0.513
59 | RRIRQRPPRLPRPRPRPLGRPRP | -0.00354
60 | RRIRDRPPRLPRPRPRPDNPPRP | -0.159
61 | RRIRCRPPRLPRPRPRPAPHPRP | 0.625
62 | RRIRLRPPRLPRPRPRPCDSPRP | -0.165
63 | RRIRKRPPRLPRPRPRPRMMPRP | 0.492
64 | RRIRERPPRLPRPRPRPQARPRP | -0.0863
65 | RRIRWRPPRLPRPRPRPLVVPRP | 0.173
66 | RRIRWRPPRLPRPRPRPIENPRP | 0.0363
67 | RRIRFRPPRLPRPRPRPTCWPRP | 0.0659
68 | RRIRLRPPRLPRPRPRPITVPRP | -0.216
69 | RRIRRRPPRLPRPRPRPCMRPRP | 0.264
70 | RRIRARPPRLPRPRPRPAHKPRP | 0.664
71 | RRIRQRPPRLPRPRPRPLRHPRP | 0.323
72 | RRIRHRPPRLPRPRPRPCIKPRP | -0.721
73 | RRIRRRPPRLPRPRPRPDQTPRP | 0.0174
74 | RRIRWRPPRLPRPRPRPESHPRP | 0.189
75 | RRIRVRPPRLPRPRPRPTIDPRP | -0.0691
